Assay results published in patent publication US20170369592A1, “NOVEL ANTI-FIBROBLAST ACTIVATION PROTEIN (FAP) ANTIBODIES AND USES DERIVED THEREOF” (Mabimmune Diagnostics AG, priority 2015, published 2017).

Legend:
4T1 breast tumor = experiment: In-vivo fluorescence imaging in 4T1 breast tumor bearing Balb/c mice; settings: fluorescently labeled antibody, tumor mouse model
Protocol: These antibodies are designated as A680-82C2 (Alexa 680 labelled 82C2) and A680-43A11 (Alexa 680 labelled 43A11).
A murine cancer model was generated by the injection of 100′000 4T1 cultured breast tumor cells orthotopically into the 2nd left breast of Balb/c immunocompetent mice and allowed to grow for 7 days. Prior to in vivo imaging, the animals were shaved and de-epilated to remove fur for minimal absorbance and scattering of the incident optical light. In-vivo imaging was performed with the Maestro 500 imaging system (Cambridge Research Inc, Woburn, USA). For A680-82C2 detection, a band pass filter from 615 nm-665 nm and a highpass filter over 700 nm were used for excitation and emission light respectively, and fluorescence was detected by a CCD camera (cooled to 11° C.). A series of images were acquired at different wavelengths and then subjected to spectral unmixing (deconvolution of collected optical spectra; this enabled the unmixing of the Alexa680 fluorescence pattern from tissue auto-fluorescence and other spectral contributions).
The 4T1-breast tumor bearing Balb/c mice (3-4 in each group) were then injected on day 7 after innoculation with 2 mg/kg of A680-82C2 or A680-43A11. Whole mice images were acquired at the following timepoints: before antibody injection, immediately after antibody injection, 6h, 24h, 48h, and 6d after antibody injection.

[1] = test system: carotid artery photochemical injury-induced thrombosis; experiment: Carotid artery photochemical injury-induced thrombosis model; format: in vivo, mouse; settings: 95% confidence interval=0.01-0.16, p<0.0001
Protocol: The carotid artery photochemical injury-induced thrombosis model begins with anesthesia by intraperitoneal injection of sodium pentobarbital (87 mg/kg body weight). After slight tail warming (using warm water) rose bengal (10 mg/mL in PBS) is injected into the tail vein in a volume of 0.12 mL at a concentration of 50 mg/kg. Mice will then be secured in a supine position (with the head pointing towards the operator) and placed on a heating pad (rectal temperature will be monitored) under a dissecting microscope. Following a (2.5-3 cm) midline cervical incision and a small incision of the larynx to provide a tracheostoma, by blunt preparation the right common carotid artery is exposed and cleared of connective tissue. A surgical stitch is employed to fix the stemocleidomastoid muscle aside to the right and increase access area to the right carotid artery. Care must be taken to avoid excessive vessel manipulation during procedures. […] Flow will be measured during these 60 minutes and for further 60 minutes (max time elapse 120 minutes) or until occlusion occurs. […]
Mice will be placed on a heating pad, to avoid a drop of body temperature. Heart rate (probe measuring the blood flow will also measure the heart rate) will be monitored during the surgery. […]

rhFAP = target: T1, rhFAP (Homo sapiens, UniProt Q12884); experiment: Inhibition assay on SB9 oligopeptidase family (DQ-gelatin); format: biochemical; settings: antibody up to 1000 nM, enzyme 0.2 nM
T1 construct: purchased Sino Biologicals 10464-H07H
T1 sequence (Q12884 26-760 limits assumed): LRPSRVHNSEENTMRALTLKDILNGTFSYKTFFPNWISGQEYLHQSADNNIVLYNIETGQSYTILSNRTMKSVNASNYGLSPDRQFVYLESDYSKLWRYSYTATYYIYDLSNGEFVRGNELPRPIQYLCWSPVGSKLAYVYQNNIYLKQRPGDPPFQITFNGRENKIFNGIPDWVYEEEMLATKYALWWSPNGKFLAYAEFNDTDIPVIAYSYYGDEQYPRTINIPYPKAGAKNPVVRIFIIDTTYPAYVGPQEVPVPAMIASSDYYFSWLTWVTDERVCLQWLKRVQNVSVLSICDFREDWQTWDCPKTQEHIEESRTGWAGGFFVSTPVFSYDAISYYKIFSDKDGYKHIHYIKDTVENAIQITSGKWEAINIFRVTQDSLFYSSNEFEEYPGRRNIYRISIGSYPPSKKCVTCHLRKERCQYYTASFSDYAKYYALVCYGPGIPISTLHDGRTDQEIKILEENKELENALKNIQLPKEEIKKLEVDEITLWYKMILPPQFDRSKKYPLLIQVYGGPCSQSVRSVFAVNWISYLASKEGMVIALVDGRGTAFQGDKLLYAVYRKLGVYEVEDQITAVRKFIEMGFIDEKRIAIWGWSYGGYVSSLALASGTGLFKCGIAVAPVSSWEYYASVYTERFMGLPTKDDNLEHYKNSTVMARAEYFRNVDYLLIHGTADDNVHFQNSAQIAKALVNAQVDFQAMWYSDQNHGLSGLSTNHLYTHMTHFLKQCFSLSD
Protocol: To determine the inhibitory ability of the antibody a black 96 well plate was blocked for 1 h with blocking buffer. NI-206.82C2 was pipetted at concentrations of 1000, 50, 10, 3.03, 1.01, 0.031, 0.001, and 0 nM in PBS into the according wells. The enzymes were added at a concentration of 0.2 nM. Finally, fluorgenic substrates were then added to the well at a concentration equal to the Michaelis constant (Km) and the velocity of the substrate cleavage was quantified by fluorescence at 360 nm excitation and 460 nm emission. H-Gly-Pro-AMC (AAT Bioquest, 13450) was used for DPP4, DPP9, and DPP8. Z-Gly-Pro-AMC (BaChem, I1145) was used to evaluate the activity of POP/PREP. FAP activity was assessed using DQ-gelatin (Life Technologies, D12054) and cleavage quantified at 495 nm excitation and 515 nm emission.

inhibition of rhFAP (rhFAP): selectively inhibits
B1: NI-206.82C2: recombinant human memory B cell-derived monoclonal anti-FAP IgG1 antibody, variable regions in FIG. 1A, FAP inhibitory (antibody, V domains shown)
VH: QVQLQQSGPGLVKPSQTLSLTCAISGDSVSSNSVTWNWIRQSPSRGLEWLGRTYYRSKWYNDYAVSVKGRITINPDTSKNQFYLQLKSVTPEDAAVYYCARDSSILYGDYWGQGTLVTVSS
VL: QAVLTQPSSLSASPGASASLTCTLPSGINVGTYRIFWFQQKPGSPPQYLLSYKSDSDNHQGSGVPSRFSGSKDASANAGILLISGLQSEDEADYYCMIWHSSAWVFGGGTKLTVL
antibody concentration after 6 d post antibody injection (4T1 breast tumor): almost zero
Log-rank hazard ratio, arterial occlusion versus 43A11 [1]: 0.04
